B1: Serine-threonine kinase receptor-associated protein (Homo sapiens), Q9Y3F4 (parent)
chain: MAMRQTPLTCSGHTRPVVDLAFSGITPYGYFLISACKDGKPMLRQGDTGDWIGTFLGHKGAVWGATLNKDATKAATAAADFTAKVWDAVSGDELMTLAHKHIVKTVDFTQDSNYLLTGGQDKLLRIYDLNKPEAEPKEISGHTSGIKKALWCSEDKQILSADDKTVRLWDHATMTEVKSLNFNMSVSSMEYIPEGEILVITYGRSIAFHSAVSLDPIKSFEAPATINSASLHPEKEFLVAGGEDFKLYKYDYNSGEELESYKGHFGPIHCVRFSPDGELYASGSEDGTLRLWQTVVGKTYGLWKCVLPEEDSGELAKPKIGFPETTEEELEEIASENSDCIFPSAPDVKA

Tests used:
Settings in all cases: with ndka_human NME1, P15531
ndka_human NME1, P15531, sequence (P15531 whole entry): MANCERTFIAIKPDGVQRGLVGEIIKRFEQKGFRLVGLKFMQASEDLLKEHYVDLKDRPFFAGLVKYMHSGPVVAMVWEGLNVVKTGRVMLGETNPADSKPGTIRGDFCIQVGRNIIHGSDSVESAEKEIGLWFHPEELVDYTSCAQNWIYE

ndka_human NME1, P15531 [1] = variants of: B1
ndka_human NME1, P15531 [2] = variants of: B1; remark: listed apart in the source
ndka_human NME1, P15531 [3] = variants of: B1; remark: listed apart in the source

Row | Variant | effect of a mutation on the interaction (ndka_human NME1, P15531 [1]) | effect of a mutation on the interaction (ndka_human NME1, P15531 [2]) | effect of a mutation on the interaction (ndka_human NME1, P15531 [3])
1 | C270S | decreasing interaction | disrupting interaction | –
2 | C152S | decreasing interaction | disrupting interaction | –
3 | C152S;C270S | disrupting interaction | – | decreasing interaction
